# Experimental data: the supplement of paper PMC10065799, “High-throughput profiling of sequence recognition by tyrosine kinases and SH2 domains using bacterial peptide display” (eLife, 2023)
# Legend:
# EPHB2 = EPHB2 (UniProt P29323); assay: phosphorylation enrichment, bacterial display (enrichment ratio); higher = better substrate or ligand; peptides without Tyr show the background
# Fer (mouse) = assay: as above
# EPHB1 = EPHB1 (UniProt P54762); assay: as above
# Fes = Fes (UniProt P07332); assay: as above
# Fyn = Fyn (UniProt P06241); assay: as above
# Sequence of Fyn (P06241 whole entry, looked up): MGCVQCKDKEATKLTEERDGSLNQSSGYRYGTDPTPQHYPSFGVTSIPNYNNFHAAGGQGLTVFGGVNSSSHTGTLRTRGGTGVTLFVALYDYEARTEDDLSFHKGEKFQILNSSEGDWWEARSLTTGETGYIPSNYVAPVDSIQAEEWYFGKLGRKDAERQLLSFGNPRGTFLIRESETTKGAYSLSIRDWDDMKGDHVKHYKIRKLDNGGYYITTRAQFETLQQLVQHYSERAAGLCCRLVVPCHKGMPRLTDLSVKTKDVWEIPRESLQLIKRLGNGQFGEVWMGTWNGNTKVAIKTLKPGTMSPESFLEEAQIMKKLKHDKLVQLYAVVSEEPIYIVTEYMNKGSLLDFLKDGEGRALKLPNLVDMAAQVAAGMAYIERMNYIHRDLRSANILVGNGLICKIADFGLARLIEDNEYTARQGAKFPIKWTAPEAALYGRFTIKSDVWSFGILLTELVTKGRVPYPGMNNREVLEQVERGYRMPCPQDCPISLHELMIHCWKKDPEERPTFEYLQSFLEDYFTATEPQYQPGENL
# Jak2 = Jak2 (UniProt O60674); assay: as above
# AncSZ = assay: as above
# MERTK = MERTK (UniProt Q12866); assay: as above
# FGFR3 = FGFR3 (UniProt P22607); assay: as above
# Sequence of FGFR3 (P22607 whole entry, looked up): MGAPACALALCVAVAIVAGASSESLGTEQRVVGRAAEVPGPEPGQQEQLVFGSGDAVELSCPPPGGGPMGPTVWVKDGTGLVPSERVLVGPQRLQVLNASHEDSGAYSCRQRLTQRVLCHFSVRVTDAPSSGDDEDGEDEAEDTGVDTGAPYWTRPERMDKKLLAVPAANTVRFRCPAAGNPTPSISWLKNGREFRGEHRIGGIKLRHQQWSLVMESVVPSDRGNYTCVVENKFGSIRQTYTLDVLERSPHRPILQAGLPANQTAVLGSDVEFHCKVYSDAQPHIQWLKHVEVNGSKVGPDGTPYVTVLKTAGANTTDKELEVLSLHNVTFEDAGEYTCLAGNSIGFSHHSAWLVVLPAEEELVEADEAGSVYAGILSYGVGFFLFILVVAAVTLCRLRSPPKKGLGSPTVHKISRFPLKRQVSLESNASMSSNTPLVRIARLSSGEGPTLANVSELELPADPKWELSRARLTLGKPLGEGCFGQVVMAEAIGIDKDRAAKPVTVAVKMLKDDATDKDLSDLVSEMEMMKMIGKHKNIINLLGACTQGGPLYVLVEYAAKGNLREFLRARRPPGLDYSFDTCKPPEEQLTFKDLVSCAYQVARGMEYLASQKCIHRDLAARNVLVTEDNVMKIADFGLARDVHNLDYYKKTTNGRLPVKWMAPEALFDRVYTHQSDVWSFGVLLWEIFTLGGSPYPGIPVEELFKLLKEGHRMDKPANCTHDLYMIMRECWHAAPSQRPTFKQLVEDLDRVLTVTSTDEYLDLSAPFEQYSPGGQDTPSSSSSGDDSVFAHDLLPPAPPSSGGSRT
# c-Abl (mouse) = assay: as above
# FGFR1 = FGFR1 (UniProt P11362); assay: as above
# Sequence of FGFR1 (P11362 whole entry, looked up): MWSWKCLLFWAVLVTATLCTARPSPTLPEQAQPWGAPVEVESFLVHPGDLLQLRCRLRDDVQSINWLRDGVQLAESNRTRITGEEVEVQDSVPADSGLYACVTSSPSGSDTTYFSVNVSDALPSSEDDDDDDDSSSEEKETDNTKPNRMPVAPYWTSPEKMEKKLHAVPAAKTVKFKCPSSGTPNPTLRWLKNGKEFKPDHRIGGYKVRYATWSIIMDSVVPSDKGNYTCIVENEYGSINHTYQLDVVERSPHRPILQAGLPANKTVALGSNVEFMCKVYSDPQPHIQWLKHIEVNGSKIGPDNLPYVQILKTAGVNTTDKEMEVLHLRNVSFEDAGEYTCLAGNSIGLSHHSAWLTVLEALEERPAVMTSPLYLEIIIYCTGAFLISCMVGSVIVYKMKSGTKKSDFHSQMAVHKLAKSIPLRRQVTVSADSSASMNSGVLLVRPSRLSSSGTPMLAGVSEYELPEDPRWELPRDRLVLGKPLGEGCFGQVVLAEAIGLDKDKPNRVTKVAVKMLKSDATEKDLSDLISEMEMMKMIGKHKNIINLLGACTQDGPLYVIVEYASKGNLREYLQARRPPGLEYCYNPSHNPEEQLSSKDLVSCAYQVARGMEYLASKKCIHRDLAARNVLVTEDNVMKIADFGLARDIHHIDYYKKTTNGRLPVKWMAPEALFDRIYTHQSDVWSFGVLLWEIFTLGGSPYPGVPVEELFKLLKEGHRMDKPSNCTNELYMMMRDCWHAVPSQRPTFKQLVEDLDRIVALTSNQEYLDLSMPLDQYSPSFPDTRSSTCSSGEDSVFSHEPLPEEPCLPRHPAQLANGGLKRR
# Hck = Hck (UniProt P08631); assay: as above
# Sequence of Hck (P08631 whole entry, looked up): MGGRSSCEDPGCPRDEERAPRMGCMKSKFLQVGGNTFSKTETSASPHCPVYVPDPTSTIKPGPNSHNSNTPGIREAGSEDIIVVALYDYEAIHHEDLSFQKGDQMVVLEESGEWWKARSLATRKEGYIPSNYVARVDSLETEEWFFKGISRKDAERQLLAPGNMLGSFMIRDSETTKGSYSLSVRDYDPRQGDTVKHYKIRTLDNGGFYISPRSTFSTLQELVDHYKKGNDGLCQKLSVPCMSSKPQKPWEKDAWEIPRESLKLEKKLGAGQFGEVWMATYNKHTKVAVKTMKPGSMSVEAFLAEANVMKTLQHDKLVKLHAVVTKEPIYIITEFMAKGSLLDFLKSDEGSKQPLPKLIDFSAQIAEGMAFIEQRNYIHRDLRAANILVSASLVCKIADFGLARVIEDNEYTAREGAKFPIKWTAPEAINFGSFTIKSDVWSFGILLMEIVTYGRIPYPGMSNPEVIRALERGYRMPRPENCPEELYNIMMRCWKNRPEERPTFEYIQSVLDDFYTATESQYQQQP
# c-Src = assay: as above
# SHP2-C SH2 = assay: SH2 binding enrichment of the phosphorylated peptide, bacterial display (enrichment ratio); higher = better substrate or ligand; peptides without Tyr show the background
# c-Src SH2 = assay: as above
# Grb2 SH2 = Grb2 SH2 (UniProt P62993); assay: as above
# 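For SH2 binding enrichment of the phosphorylated peptide, bacterial display in this document: peptide library displayed on the E. coli surface as eCPX fusions, selected cells deep-sequenced, score is each peptide's frequency after selection divided by its frequency in the input.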
# 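For phosphorylation enrichment, bacterial display in this document: 11-residue human phosphosite peptides and single-mutation variants displayed on the E. coli surface, counted by deep sequencing, each peptide's frequency after selection divided by its frequency in the unselected input library; frequency after pTyr selection over input frequency; kinase dosed for 20-30% of maximal phosphorylation in three min.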
# Sequence of EPHB1 (P54762 whole entry, looked up): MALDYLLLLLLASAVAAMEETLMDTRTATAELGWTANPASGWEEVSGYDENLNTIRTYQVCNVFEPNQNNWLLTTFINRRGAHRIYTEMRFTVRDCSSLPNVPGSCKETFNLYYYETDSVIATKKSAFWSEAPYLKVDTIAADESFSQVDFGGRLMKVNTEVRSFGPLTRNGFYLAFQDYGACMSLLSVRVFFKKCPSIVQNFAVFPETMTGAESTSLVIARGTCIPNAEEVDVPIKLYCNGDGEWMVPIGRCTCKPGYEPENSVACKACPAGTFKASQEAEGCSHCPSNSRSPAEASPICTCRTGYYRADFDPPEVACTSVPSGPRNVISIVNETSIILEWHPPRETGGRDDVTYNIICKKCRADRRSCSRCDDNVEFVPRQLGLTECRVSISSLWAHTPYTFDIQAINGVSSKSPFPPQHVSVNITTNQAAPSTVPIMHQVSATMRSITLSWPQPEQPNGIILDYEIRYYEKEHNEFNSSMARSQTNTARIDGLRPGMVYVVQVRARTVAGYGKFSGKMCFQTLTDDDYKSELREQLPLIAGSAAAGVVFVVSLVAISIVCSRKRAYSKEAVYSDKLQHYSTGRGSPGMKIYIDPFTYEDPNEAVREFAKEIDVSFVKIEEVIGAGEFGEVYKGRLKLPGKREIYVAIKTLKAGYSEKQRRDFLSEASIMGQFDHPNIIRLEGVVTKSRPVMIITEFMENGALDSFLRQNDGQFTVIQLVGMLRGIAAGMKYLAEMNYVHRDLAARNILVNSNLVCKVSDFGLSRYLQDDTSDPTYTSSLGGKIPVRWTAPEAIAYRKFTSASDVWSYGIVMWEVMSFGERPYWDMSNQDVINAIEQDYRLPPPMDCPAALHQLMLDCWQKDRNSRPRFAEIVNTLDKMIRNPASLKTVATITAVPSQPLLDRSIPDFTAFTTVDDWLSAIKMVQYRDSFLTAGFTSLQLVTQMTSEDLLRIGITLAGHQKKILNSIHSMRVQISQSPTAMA
# Sequence of EPHB2 (P29323 whole entry, looked up): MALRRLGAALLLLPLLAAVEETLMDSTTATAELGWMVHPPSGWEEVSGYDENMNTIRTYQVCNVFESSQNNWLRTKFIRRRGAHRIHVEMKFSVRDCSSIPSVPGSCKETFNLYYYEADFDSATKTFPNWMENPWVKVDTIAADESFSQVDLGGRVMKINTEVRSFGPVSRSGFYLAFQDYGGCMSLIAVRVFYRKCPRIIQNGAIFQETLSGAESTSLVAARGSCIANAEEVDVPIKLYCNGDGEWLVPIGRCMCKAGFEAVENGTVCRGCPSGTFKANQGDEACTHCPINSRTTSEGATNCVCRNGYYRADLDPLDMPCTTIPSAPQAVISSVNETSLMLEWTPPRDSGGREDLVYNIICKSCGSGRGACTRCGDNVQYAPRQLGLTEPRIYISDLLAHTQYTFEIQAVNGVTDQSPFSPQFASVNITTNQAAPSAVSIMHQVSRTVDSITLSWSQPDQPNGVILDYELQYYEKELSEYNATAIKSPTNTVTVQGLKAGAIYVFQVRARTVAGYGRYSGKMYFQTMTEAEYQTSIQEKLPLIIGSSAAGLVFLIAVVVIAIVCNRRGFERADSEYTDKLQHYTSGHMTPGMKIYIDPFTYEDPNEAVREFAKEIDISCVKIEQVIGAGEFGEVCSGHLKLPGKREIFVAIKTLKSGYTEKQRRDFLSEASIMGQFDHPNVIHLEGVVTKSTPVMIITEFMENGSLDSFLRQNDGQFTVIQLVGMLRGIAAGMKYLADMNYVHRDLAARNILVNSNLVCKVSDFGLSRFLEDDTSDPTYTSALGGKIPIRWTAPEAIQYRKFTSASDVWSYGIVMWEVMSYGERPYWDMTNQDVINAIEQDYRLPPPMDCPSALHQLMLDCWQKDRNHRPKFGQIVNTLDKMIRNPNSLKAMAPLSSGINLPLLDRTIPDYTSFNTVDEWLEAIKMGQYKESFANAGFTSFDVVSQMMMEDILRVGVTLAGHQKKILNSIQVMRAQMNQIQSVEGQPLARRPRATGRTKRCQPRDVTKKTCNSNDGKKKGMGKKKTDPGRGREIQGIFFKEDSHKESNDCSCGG
SH2 binding enrichment (SHP2-C SH2),SH2 binding enrichment (c-Src SH2),SH2 binding enrichment (Grb2 SH2),Sequence,phosphorylation enrichment (EPHB2),phosphorylation enrichment (Fer (mouse)),phosphorylation enrichment (EPHB1),phosphorylation enrichment (Fes),phosphorylation enrichment (Fyn),phosphorylation enrichment (Jak2),phosphorylation enrichment (AncSZ),phosphorylation enrichment (MERTK),phosphorylation enrichment (FGFR3),phosphorylation enrichment (c-Abl (mouse)),phosphorylation enrichment (FGFR1),phosphorylation enrichment (Hck),phosphorylation enrichment (c-Src)
0.536,0.31,0.829,AISEGYKDFRA [CDA_Y79_V75I],0.415,0.313,0.353,0.638,0.323,0.617,0.617,0.382,0.524,0.622,0.425,0.405,0.499
1.16,1.19,1.03,AKRKNYAPVTM [CFAP47_Y557_A561T],0.364,0.286,0.365,0.518,0.387,0.351,0.459,0.431,0.34,0.454,0.418,0.371,0.445
0.599,0.511,0.889,ALETLYKKAVK [CC2D2A_Y381_E376A],0.366,0.446,0.348,0.864,0.342,0.603,0.559,0.338,0.475,0.463,0.405,0.396,0.307
0.676,0.412,0.756,ALIKAYVKAVA [SMN1_Y43_D44V],0.534,0.445,0.65,0.995,0.462,1.12,0.966,0.481,0.639,0.68,0.623,0.464,0.557
0.845,0.711,0.991,ALVDTYCRHNF [HLA-DRB1_Y107_A103L_YF],0.613,0.588,0.55,0.935,0.454,0.847,0.782,0.549,0.682,0.683,0.472,0.577,0.538
0.749,0.503,0.814,ANARMYGVLPW [PLP1_Y207_D203N],0.676,0.474,0.513,0.783,4.99,0.616,0.74,0.734,0.506,0.846,0.462,6.06,3.85
0.503,0.597,0.75,APQFTYTQGGQ [FLNA_Y1763_A1764T_YF],0.536,0.423,0.444,0.681,0.5,0.552,0.602,0.367,0.582,0.444,0.482,0.395,0.42
0.794,14.5,1.08,AQPHTYEEPGR [EPHA8_Y616_E612Q],0.577,0.458,0.519,0.729,0.481,0.83,0.74,0.394,0.46,0.465,0.459,0.46,0.452
0.614,0.591,1.03,AQQPIYIRVEG [NLRP7_Y318_V319I],1.2,0.588,1.3,1.18,0.525,0.955,1.12,0.641,0.702,0.725,0.652,0.733,0.793
0.782,0.479,0.779,ARKWGYTVKGI [OAT_Y158],0.448,0.352,0.503,0.912,0.423,0.668,0.914,0.377,0.517,0.724,0.437,0.354,0.327
0.47,0.3,0.61,ARRHPYFYAPE [ALB_Y172],0.553,0.58,0.488,0.766,0.641,0.8,0.883,0.893,1.08,0.605,1.87,0.575,0.972
0.763,1.66,0.834,ARSHIYTFASC [MEFV_Y741],0.533,0.563,0.488,1,1.41,0.866,0.932,0.808,0.653,0.849,0.491,0.671,1.3
0.769,0.49,0.776,ARVANYHRDGP [CAT_Y386_Q387H],0.378,0.372,0.309,0.514,0.44,0.491,0.523,0.385,0.394,0.457,0.519,0.36,0.395
0.652,0.826,0.795,ASELGYQFQAI [UROD_Y133_V134Q],0.5,0.493,0.362,0.92,0.407,0.679,0.77,0.387,0.59,0.596,0.525,0.468,0.46
0.886,0.715,0.982,ASKEPYFVHCI [MYO1D_Y585_R588H_YF],0.481,0.56,1.05,0.881,0.503,0.675,0.846,0.427,0.882,0.611,0.583,0.475,0.523
0.611,0.5,0.614,ASTDFYKRGDF [PDHA1_Y243_YF],0.375,0.475,0.374,0.795,0.325,0.749,0.719,0.345,0.431,0.515,0.413,0.39,0.52
0.509,0.651,1.07,ATHRSYDSDNP [MMUT_Y146_G145S],0.459,0.422,0.346,0.777,0.47,0.543,1.13,0.57,0.511,0.518,0.593,0.476,0.447
